From patent publication US20260258084A1, “New Peptides as Selective IL-23 Receptor Antagonists” (Sanofi, priority 2022, published 2026)
Starred links: 1 amine or outer side, 2 acyl side, 3 side chain; linkers in the order of their positions; H or OH if unused. Positions of bridges follow the written chain, without caps; N, C: chain ends. Non-standard residues stand in square brackets, D forms with d. Yde = (2S)-2-amino-3-[4-[2-(dimethylamino)ethoxy]phenyl]propanoic acid, CN(C)CCOc1ccc(C[C@H](N[*:1])C(=O)[*:2])cc1; NdmK = (2S)-6-amino-2-(dimethylamino)hexanoic acid, CN(C)[C@@H](CCCCN[*:3])C(=O)[*:2]; Nmha = 6-(methylamino)hexanoic acid, CN(CCCCCC(=O)[*:2])[*:1]; Phe(4-OMe) = COc1ccc(C[C@H](N[*:1])C(=O)[*:2])cc1; αMeLys(Me2) = CN(C)CCCC[C@](C)(N)C(=O)O; 2Nal = N[C@@H](Cc1ccc2ccccc2c1)C(=O)O; εLys = N[C@@H](CCCCN[*:1])C(=O)[*:2]; AEF = NCCOc1ccc(C[C@H](N)C(=O)O)cc1; 3Pal = N[C@@H](Cc1cccnc1)C(=O)O; αMeL = CC(C)C[C@](C)(N)C(=O)O; Nmapt = not defined here; Thp = NC1(C(=O)O)CCOCC1; Aib = CC(C)(N)C(=O)O; Ahx = NCCCCCC(=O)O; Ava = NCCCCC(=O)O; Sar = CNCC(=O)O

T1: IL-23 receptor on the surface of HEK-Blue IL-23 cells (UniProt Q5VWK5 24-629, limits assumed)
T1 sequence (looked up): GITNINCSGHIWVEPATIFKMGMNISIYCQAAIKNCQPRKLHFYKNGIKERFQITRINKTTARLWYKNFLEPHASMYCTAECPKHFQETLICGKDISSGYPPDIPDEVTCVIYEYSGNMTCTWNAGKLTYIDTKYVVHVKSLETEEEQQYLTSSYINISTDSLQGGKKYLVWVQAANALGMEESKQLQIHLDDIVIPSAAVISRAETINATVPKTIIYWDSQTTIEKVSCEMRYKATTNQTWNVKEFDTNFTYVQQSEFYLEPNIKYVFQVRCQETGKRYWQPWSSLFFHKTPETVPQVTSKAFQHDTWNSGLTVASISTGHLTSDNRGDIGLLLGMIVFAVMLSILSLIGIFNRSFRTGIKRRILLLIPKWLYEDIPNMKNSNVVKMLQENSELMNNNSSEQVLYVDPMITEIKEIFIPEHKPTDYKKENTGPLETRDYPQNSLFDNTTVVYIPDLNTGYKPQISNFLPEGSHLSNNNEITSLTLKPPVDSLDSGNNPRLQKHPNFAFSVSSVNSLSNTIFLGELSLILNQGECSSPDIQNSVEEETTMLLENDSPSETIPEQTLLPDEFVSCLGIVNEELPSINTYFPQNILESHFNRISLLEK

B1: Compound of SEQ ID NO: 27 (peptide)
peptide: [Ava]CNTWQC[Yde][2Nal][αMeL]ENN-NH2
modifications: lactam N-11; disulfide 2-7
SMILES: CC(C)C[C@]1(C)NC(=O)[C@H](Cc2ccc3ccccc3c2)NC(=O)[C@H](Cc2ccc(OCCN(C)C)cc2)NC(=O)[C@@H]2CSSC[C@H](NC(=O)CCCCNC(=O)CC[C@@H](C(=O)N[C@@H](CC(N)=O)C(=O)N[C@@H](CC(N)=O)C(N)=O)NC1=O)C(=O)N[C@@H](CC(N)=O)C(=O)N[C@@H]([C@@H](C)O)C(=O)N[C@@H](Cc1c[nH]c3ccccc13)C(=O)N[C@@H](CCC(N)=O)C(=O)N2
B2: Compound of SEQ ID NO: 57 (peptide)
peptide: [Ava]CNTWQC[Yde][2Nal][Aib]ENNI-NH2
modifications: lactam N-11; disulfide 2-7
SMILES: CC[C@H](C)[C@H](NC(=O)[C@H](CC(N)=O)NC(=O)[C@H](CC(N)=O)NC(=O)[C@@H]1CCC(=O)NCCCCC(=O)N[C@H]2CSSC[C@H](NC(=O)[C@H](CCC(N)=O)NC(=O)[C@H](Cc3c[nH]c4ccccc34)NC(=O)[C@H]([C@@H](C)O)NC(=O)[C@H](CC(N)=O)NC2=O)C(=O)N[C@@H](Cc2ccc(OCCN(C)C)cc2)C(=O)N[C@@H](Cc2ccc3ccccc3c2)C(=O)NC(C)(C)C(=O)N1)C(N)=O
notes: §1 lactam bridge; @2 disulfide bridge
B3: Compound of SEQ ID NO: 40 (peptide)
peptide: [Nmha]CNTWQC[Yde][2Nal][αMeL]DN[dL]-NH2
modifications: lactam N-11; disulfide 2-7
SMILES: CC(C)C[C@@H](NC(=O)[C@H](CC(N)=O)NC(=O)[C@@H]1CC(=O)N(C)CCCCCC(=O)N[C@H]2CSSC[C@H](NC(=O)[C@H](CCC(N)=O)NC(=O)[C@H](Cc3c[nH]c4ccccc34)NC(=O)[C@H]([C@@H](C)O)NC(=O)[C@H](CC(N)=O)NC2=O)C(=O)N[C@@H](Cc2ccc(OCCN(C)C)cc2)C(=O)N[C@@H](Cc2ccc3ccccc3c2)C(=O)N[C@@](C)(CC(C)C)C(=O)N1)C(N)=O
B4: Compound of SEQ ID NO: 30 (peptide)
peptide: [Ava]C[εLys](Ac)WQC[Yde][2Nal][Thp]ENG-NH2
modifications: lactam N-10; disulfide 2-6; also: Cys2 carboxyl bonded to Lys3 epsilon-NH2 (isopeptide), Lys3 alpha-N acetylated
B5: Compound of SEQ ID NO: 34 (peptide)
peptide: [Nmapt]CKWQC[AEF][2Nal][Thp]EA[dL]-NH2
modifications: lactam N-10; disulfide 2-6; not fully specified (residue 3); printed as Nmapt(§1)-C(§3)(@2)-K[aAc](@3)-W-Q-C(@2)-Yae-Nal-Thp-E(§1)-A-(D-Leu)-NH2; reading uncertain; also: Cys2 carboxyl joined to Lys3 epsilon-NH2 (isopeptide bond)
B6: Compound of SEQ ID NO: 31 (peptide)
peptide: [Ava]C[εLys](Ac)WQC[Yde][2Nal][αMeL]ENG-NH2
modifications: lactam N-10; disulfide 2-6; also: Cys2 carboxyl bonded to Lys3 epsilon-NH2 (isopeptide), Lys3 alpha-N acetylated
B7: Compound of SEQ ID NO: 4 (peptide)
peptide: [Ava]CNTWQC[Phe(4-OMe)][2Nal][Aib]ENG-NH2
modifications: lactam N-11; disulfide 2-7
SMILES: COc1ccc(C[C@@H]2NC(=O)[C@@H]3CSSC[C@H](NC(=O)CCCCNC(=O)CC[C@@H](C(=O)N[C@@H](CC(N)=O)C(=O)NCC(N)=O)NC(=O)C(C)(C)NC(=O)[C@H](Cc4ccc5ccccc5c4)NC2=O)C(=O)N[C@@H](CC(N)=O)C(=O)N[C@@H]([C@@H](C)O)C(=O)N[C@@H](Cc2c[nH]c4ccccc24)C(=O)N[C@@H](CCC(N)=O)C(=O)N3)cc1
B8: Compound of SEQ ID NO: 3 (peptide)
peptide: [Ahx]CNTWQC[Phe(4-OMe)][2Nal][Aib]DNN-NH2
modifications: lactam N-11; disulfide 2-7
SMILES: COc1ccc(C[C@@H]2NC(=O)[C@@H]3CSSC[C@H](NC(=O)CCCCCNC(=O)C[C@@H](C(=O)N[C@@H](CC(N)=O)C(=O)N[C@@H](CC(N)=O)C(N)=O)NC(=O)C(C)(C)NC(=O)[C@H](Cc4ccc5ccccc5c4)NC2=O)C(=O)N[C@@H](CC(N)=O)C(=O)N[C@@H]([C@@H](C)O)C(=O)N[C@@H](Cc2c[nH]c4ccccc24)C(=O)N[C@@H](CCC(N)=O)C(=O)N3)cc1
B9: Compound of SEQ ID NO: 32 (peptide)
peptide: [Ava]C[εLys](Ac)WQC[Yde][2Nal][Aib]EAG-NH2
modifications: lactam N-10; disulfide 2-6; also: Cys2 carboxyl bonded to Lys3 epsilon-NH2 (isopeptide), Lys3 alpha-N acetylated
B10: Compound of SEQ ID NO: 39 (peptide)
peptide: [Ahx]E[Ava]WQT[Phe(4-OMe)][2Nal][Aib]DNN-NH2
modifications: lactam N-10; ester 2-6
SMILES: COc1ccc(C[C@@H]2NC(=O)[C@H]3NC(=O)[C@H](CCC(N)=O)NC(=O)[C@H](Cc4c[nH]c5ccccc45)NC(=O)CCCCNC(=O)[C@H](CCC(=O)O[C@@H]3C)NC(=O)CCCCCNC(=O)C[C@@H](C(=O)N[C@@H](CC(N)=O)C(=O)N[C@@H](CC(N)=O)C(N)=O)NC(=O)C(C)(C)NC(=O)[C@H](Cc3ccc4ccccc4c3)NC2=O)cc1
B11: Compound of SEQ ID NO: 29 (peptide)
peptide: [Ava]C[εLys](Ac)WQC[Yde][2Nal][Aib]ENG-NH2
modifications: lactam N-10; disulfide 2-6; also: Cys2 carboxyl bonded to Lys3 epsilon-NH2 (isopeptide), Lys3 alpha-N acetylated
B12: Compound of SEQ ID NO: 33 (peptide)
peptide: [Ava]C[εLys](Ac)WQC[Yde][2Nal][Thp]EA[dL]-NH2
modifications: lactam N-10; disulfide 2-6; also: Cys2 carboxyl bonded to Lys3 epsilon-NH2 (isopeptide), Lys3 alpha-N acetylated

What follows are binders tested against T1, IL-23 receptor on the surface of … (assay: cell-based or functional assay).

| pSTAT3 (nM) | Binder |
| --- | --- |
| 1.71 nM | B1 |
| 11.9 nM | [Ava]CNTWK(Ac)C[Yde][2Nal][Aib]ENNI-NH2 (lactam N-11; disulfide 2-7; also: places amidation at position 13, §1 lactam bridge; @2 disulfide bridge) [Compound of SEQ ID NO: 38] |
| 5.5 nM | B2 |
| 50.8 nM | B3 |
| 5.41 nM | B4 |
| 13.3 nM | B5 |
| 5.23 nM | B6 |
| 34.8 nM | B7 |
| 13.9 nM | [Ava]C[NdmK]WK(Ac)C[Yde][2Nal][αMeLys(Me2)]EN[3Pal][Sar]-NH2 (lactam N-10; disulfide 2-6) [Compound of SEQ ID NO: 36] |
| 17.2 nM | B8 |
| 20.5 nM | B9 |
| 2 nM | [Ava]CNTWK(Ac)C[Yde][2Nal][Aib]EN[3Pal]I-NH2 (lactam N-11; disulfide 2-7; also: places amidation at position 13) [Compound of SEQ ID NO: 37] |
| 26.4 nM | B10 |
| 8.16 nM | B11 |
| 53.8 nM | B12 |
